From patent US20130205416A1

Columns and labels:
Experiment in all cases: cell-based or functional assay
[1] = biological target: haemagglutinin of A/England/195/09 (H1N1), on PR8 recombinant virus (Influenza A virus A/England/195/09 (H1N1))
[2] = biological target: haemagglutinin of A/Victoria/3/75 (H3N2), on PR8 recombinant virus (Influenza A virus A/Victoria/3/75 (H3N2)), P03435
[3] = biological target: haemagglutinin of influenza virus A/Udorn/72 (H3N2) (Influenza A virus A/Udorn/72 H3N2)

## WLVFFVIFYFFRRRKK (modifications not checked) [FP3 peptide (…)]
[1]
  IC50 of inhibition of infectivity (plaque reduction assay): 0.066 to 0.1 µM
[2]
  IC50 in plaque reduction assay: 16 µM
[3]
  IC50 in plaque reduction assay: 16 µM
